# According to the supplement of paper PMC12636428:
# System: Saccharomyces cerevisiae
# Assay: transcriptional activation domain activity (GFP:mCherry ratio, weighted mean of sorted bins, harmonized to initial dataset scale) (arbitrary fluorescence ratio units); higher = stronger transcriptional activation
# Conditions: beta-estradiol 1 µM; induction time 4 h
# Summary of the method: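 Barcoded protein tiles fused to an estradiol-inducible synthetic transcription factor were integrated at the yeast URA3 locus, in diploids carrying a GFP reporter. Cultures were diluted 1:5 into SC with 1 uM beta-estradiol, held 4 hours at 30 °C, sorted into 8 bins by GFP:mCherry ratio, and barcodes sequenced. Tiles under 50 reads were discarded. Activation activity is the read-weighted mean of bin median fluorescence, averaged across barcodes, then linearly mapped onto the initial dataset scale.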
row,Sequence,transcriptional activation domain activity
1,MGLTVFSILYIPLNIIPPFFCCCLYIYHCFSFFSSTFILFFFFFGTVFAQVIL,53200
2,EGDRKGRGRGRGRDDRGPRDRNREREDRDEKNDKKRAREEGNDEKPAKNADSK,54500
3,NNNYNNVSGKNNNNNNITNNSNNNHNNNNNDNNNNNNNNNNNNNNNNNSGNSS,49500
4,TSAFGNLGSSSSTPSVFGGAGAGTNNTGSGGGGGGGFSAFAGKPTAFGAGAAG,39400
5,LLLLIFAVFLRACDILSSQWLIWWTDGIVLGASHDLNFWKGWYMFIVWISLFF,54800
6,GSYTSAARGGKAVQEAIRAMIERKGLELRQKQRKLRQDVVIVMHHATALPGTS,56300
7,EEKDTKGGPATTSKAVVKGSKSAADKKKLVKGDAKGKVPENGKRDKSEEKDEK,21800
8,CFKHIGLYWAERGITLGRLEQLVGCHSLFSALERQASLRAWSILGMLLTIVWF,61400
9,MCASVILFCLVFSSSYLLAIFKDCYLALLYYMQCWSMYYLFSDFVCHYPISKG,72200
10,EGEYKTLATDDLGNILNLNYGETNEVIMNEINDLNLPLGPLSDEKSVKVSTFS,84800
11,MSLFSILYFYYTICFICFLTFLTIKDLHIYLLLKFQITIFLFCYFFVCFLSPL,76600
12,NLCELIYLDRLCGCCLFSMRSVVFIDLLSTLIQPVTVVYIVYLIYLVAANGAT,28000
13,LALFGMKMVEAIMTMIHMDFRYCDFLGILPLLIFLIPCHYFYTLLKIKALLTY,60600
14,MIHVPLIIFYIILNLFVAYLCLLIFSYYYRMIAQLLYNQCMIQMQPIIHQIKE,53500
15,FVNLPYYPHVHLSSFFFFCFSLSIFVLSFRFVHLIPFPSYLLCLSVRLFFGLL,25600
16,GARTGKDKEKEKDKEKDKGARRSSCRSWSRDRGRSRSRSPRRDRERDRERGRG,31500
17,MWLVKCTYILYIYIFGKWKVREVLELTRVFFFFFSFFFFLFFFPFFFFFFFFF,59900
18,STHSVSLLVVWALRRIRVNLVKLAGITYMVPFPLLLVLVMIGSSSYLSWIFWI,64900
19,KEDILLTLYENSTFGGLWSKLSDCLTVIRQRGNMLNIATILLPLIEALMVVCK,54700
20,DSDEEDESELETDSESETGGIPIHESLSGAKSEDADKNERTIFIGNITVTAVQ,46400
21,IEHKYTTQVNVFFGIVFSELLKSNTAVRGCLMVGIARVAKSGWMSGLNHIEVF,68500

row,Sequence,transcriptional activation domain activity
1,STGGARKGSAAPSKTSSSNISGRDKEKSRSKEKLGSQSALAAGSTPAPKAAAA,47900
2,MCVGTCIYINIPGLHRCYLLLLHLRLSYHIPMYMFIGVPGLRFRVALLISSYF,53300
3,RGDGAEDSNRKRRRRSRSPRRSPPDRARERSTTADDAKGTRHRDRSSHRHKDK,32600
4,ILRLSVVLKPHHYWWFLLHLLLILLLVAFTCSSFLILKHGPVWILALFLLLHI,45400
5,MSFFWDTSLCACVTRIREMSFWEFLVGLAFFFFFLVKGSCICVACFFFFFFWS,34200
6,SEPTAGNEGKEETSAPKKEESKPAESEKKAEEPKQEQPKKEEKKAEGKPASGS,31400
7,AIMIMCLLLFENEFLNIVAISFTALVLNELIMVALEITTWHIYMILAEIVTLF,55800
8,MLCDATSGLWILLCFFFFCVVLFVLIVSVFSTLPMWMSYSFFFLFVGFDLLLS,35600
9,MLMTKYMCKGSRLIFIFFCVFRLSMLFTFFSIVSDSCLYWCRVISYLVLLMTL,63700
10,MIHYPPLLQSPRLVCTLLCSVDVIWLWFNHLFTLFITWRGVLFFLSFFTLLFF,51600
11,ADCAVIGVNSEEEATELPRAYVVHAKGIPPSEQAAFGVSVQEWVKSRVARHKQ,80600
12,FSYFYCFFFPLFTFFLFHIFVLLSIKQFLFLFLFVFLFLVLLFIVPPLFPVSV,17300
13,GGAAAKESESKSSASTSKASISKGKDEQGAGASGGNKKGGGGKATTKRGRKKG,29400
14,DRLSLRFTLAISLTDVIRAIAILIYSHFQVDDWRCSLLSFSLYWLTLLYLFLT,25300
15,SREGPAQSSCSSRVTEILKSSRDLKVGDVLVLGKDQRVPADVVLLKSFATEAS,18600
16,EDEEEAPAKVIKAKRAPPKRKAPAKDDDDEESAEEKPKKKKAPSKKAAAKAQA,38200
17,MGLGVLYHLSLLFPSFSFFYLSSSFPPFFFFFLLLWLFPISCLGFLVLFWTGS,61300
18,MAITHAALPPMCRISLIRVWIETMLYGFNCVMYGLCMFIPVEGRLLLCWMLIV,50700
19,VLPPLLLAILFAVLPFILRGLAWYECIPRYSLISVSVYRRFFLFLLIHGFLIV,65300
20,IYIFPINTTIASFALGYLSIFYLIYAILTVLPTFFFDCPYGTPFSALMWRISH,62300
21,QVCFLGLSFRCVIGIDQMRCRSGYCSFVSLLYTLGNLSGVFSGIFAYAFSHLN,66500

row,Sequence,transcriptional activation domain activity
1,REQQQRNDFPEGTHRMKVVAERWKTLSDDQREISFISSLLYAYVHVELRLRLG,46500
2,AIYSNIMGFLGGVAWAMLVAHICQLFPNACAAAIVTRFFRIMYQWKWPQPVLL,64900
3,ERAVVGLLRICLILATRPSLRDQIFVSFDLLAGLPPAIANAVAEQVVAGLILV,35700
4,EPKAEEPAPRKSDEGQGKDKEQPKEIKEEEQQRGRRPDKGKARVVVQGFAAEE,23200
5,EGKKREEEEGRRKEGGTEEDREREPKRGDRRSRGKAGQSPEARERGTGGQGRR,37200
6,AAAGNATAEAGAAEGKAKGKGKDAAAAEGAAAAGGAAAAEGKAKGKGKDAAAA,46600
7,FRFLLKLLLVHGRWNYIRTCKYTLGTFWKEMLFYLTQALYQRWAGYTGTSLYE,54800
8,ATNLFFTAAIFYFIFVVFGVILVLLYKALCELLIRSKKIGSESHLFHFIHNGW,44900
9,EGSERESKGSEREGEGSEREGKRNEREGKRGERGGERVGERGSEKVGERGSEK,22700
10,SQSRSRSASRSRSPPRKREKRDSSDREDSRDRRRNKSESRSRSRSPAKSAGSA,16300
11,APKAAAPPPAPVPAPAPVAAPAPAASVELGPDGQPKRRRGRPKGSKNKPKIPP,35700
12,DAKSGTSGGLFGSAAPASSTAPNSSGAATAGASSTTTTAPAGGLFGAKPAAAS,< 6570
13,QELCRTANITYHRTSYPVVHRHLFSTPSLQRLMTWLKELPYQVAFQVELLVRG,49100
14,TIMYGVRFVVVLLTMEIMIHFMYMVAIFHAKPDWSAYTPFQLSMLGYFNLNHI,46200
15,QTTDLVQWLAMPCNLPWVVYVLDRVRNLLRFVIVLSEVEITEDLKRRIMAIYT,77400
16,WLIKPEQNNGTWVADVLWPKLNLDLQWIASHWNQSSWDLWWPPVWGVLTGLPL,67700
17,APAAADEEQEGESKNKKKKKKKGAKKAEADEEAVEAAAPAKGKKKGGAPIAAL,54700
18,MDSGTLVGGANADGLVEIPLPGHDSIHLHVTHPRVMFLLTFLVSAACKRDPVS,27100
19,ELYGKPSMEAIFLLFAHYLYAGACAKGEHLIITTWDMYYEKLGFMLIFWNMAG,64300
